Experimental data: PMC9302846, “Three enigmatic BioH isoenzymes are programmed in the early stage of mycobacterial biotin synthesis, an attractive anti-TB drug target” (PLoS Pathogens, 2022)
Values belong to the molecule of their own block, whether it stands above or below them.

Experiments:
[1] = molecular target: Seleno-methionine (Se-Met) substituted BioH3 protein (Mycobacterium smegmatis MC2 155) (UniProt A0R6Y0); experiment: crystal structure; Se-substituted BioH3, sitting-drop vapor diffusion at 16°C; 20 mM citric acid, 80 mM Bis-Tris propane pH 8.8, 16% PEG3350; SAD; space group P2(1), six molecules per asymmetric unit
[2] = molecular target: the molecule itself; experiment: SEC; Superdex 200 Increase column; protein dialyzed in 20 mM Tris-HCl (pH 8.0), 150 mM NaCl and concentrated to ~15 mg/ml

stoichiometry N [1]: 2
Molecule: Seleno-methionine (Se-Met) substituted BioH3 protein (from UniProt A0R6Y0 1-282) (enzyme)

B1: BioH2 (MSMEG_1352) of M. smegmatis MC2 155, hexa-histidine-tagged (enzyme, Mycobacterium smegmatis MC2 155, UniProt A0QS51 1-305, looked up)
chain: MQTRTGLARAGDADHPIDLFYEDMGDPGDPAVLLIMGLGAQMLMWRTEFCEKLVDQGLRVIRFDNRDVGLSTKLSGQRVDSPLALRMARSFLGKRSPAVYTLEDMADDAAALLDHLEIDRAHIVGGSMGGMIAQVFASQHAARTETLGVIFSSNNQALLPPPGIRQLLSLITGPPADASRDAVLDNAVRLSRLNGSPAYPRSEEEIRAEAAELYDRAYYPAGIARHFAAILGSGSLRHHNERVTAPTVVIHGRADRLMPPSGGRAIANAIRGARMVLIDGMGHELPEPVWDEVIGELKTNFAVVG
notes: BioH2, product of MSMEG_1352 of Mycobacterium smegmatis MC2 155; source: E. coli BL21(DE3), pET28a, purified (nickel column, dialysis)
binding result [2]: binds
